Experimental data taken from patent publication US20240101683A1 (published 2024).
Where a chain is given by its changes, count along the chain named.

B1: FWB1904 (antibody, V domains shown)
VH: QVQLVQSGAEVKKPGSSVKVSCKASGYIFTSYNVHWVRQAPGQGLEWIGSIYPDNGDTSYNQNFRGRATITADKSTSTAYMELSSLRSEDTAVYYCARGDFAYWGQGTLVTVSS
VL: DIQMTQSPSSLSASVGDRVTITCKASNGISNDIAWYQQKPGKAPKLLIYSASYRYSGVPSRFSGSGSGTDFTFTISSLQPEDIATYYCQQHSTTPYTFGQGTKLEIK
B2: FWB1920 (antibody, V domains shown)
VH: B1 VH with V34I, T58S, F64Y
VL: B1 VL with A25G, I29V
B3: FWB1919 (antibody, V domains shown)
VH: B1 VH with T58S, F64Y
VL: B1 VL with K24R, A25G
B4: FWB1918 (antibody, V domains shown)
VH: B1 VH with T58S
VL: B1 VL with A25G
B5: FWB1908 (antibody, V domains shown)
VH: B1 VH with S31T, T58S, S59T, R65K
VL: B1 VL with A25G, N27Q, I29V, I33V, S56T
B6: FWB1911 (antibody, V domains shown)
VH: B1 VH with T58S, F64Y, R65K
VL: B1 VL with I29V, T97S
B7: FWB1905 (antibody, V domains shown)
VH: B1 VH with T58S, F64Y, R65K
VL: B1 VL with I29V
B8: FWB1915 (antibody, V domains shown)
VH: B1 VH with T58S, N61D, Q62E, N63D, F64Y, R65K
VL: B1 VL with I29V
B9: FWB1925 (antibody, V domains shown)
VH: B1 VH with T58S, S59T, N61D, Q62E, N63D, F64Y
VL: B1 VL with A25G
B10: FWB1921 (antibody, V domains shown)
VH: B1 VH with T58S, S59T, F64Y
VL: B1 VL with A25G, I29V
B11: FWB1906 (antibody, V domains shown)
VH: B1 VH with T58S, F64Y
VL: B1 VL
B12: FWB1910 (antibody, V domains shown)
VH: B1 VH with S31T, N61D, Q62E, N63D, R65K
VL: B1 VL with A25V, N27Q, I29V, I33A, A34V, S56T
B13: FWB1907 (antibody, V domains shown)
VH: B1 VH with H35N, T58S, Q62N, F64Y, R65K
VL: B1 VL with K24R
B14: FWB1916 (antibody, V domains shown)
VH: B1 VH with T58S, F64Y, R65K
VL: B1 VL
B15: FWB1914 (antibody, V domains shown)
VH: B1 VH with T58S, Q62N, F64Y, R65K
VL: DIQMTQSPSSLSASVGDRVTITCKASNGVSNDIAWYQQKPGKAPKLLIYSASYRYSGVPSRFSGSGSGTDFTFTISSLQPEDIATYYCQQHSTTPYTFGQGTKLEIKR
B16: FWB1912 (antibody, V domains shown)
VH: B1 VH with T58S, F64Y, R65K, F101Y
VL: B1 VL with I29V
B17: FWB1913 (antibody, V domains shown)
VH: B1 VH with T58S, F64Y, R65K, F101Y
VL: B1 VL with I29V, T97S
B18: FWB1922 (antibody, V domains shown)
VH: B1 VH with T58S, S59T, F64Y
VL: B1 VL with A25G
B19: FWB1924 (antibody, V domains shown)
VH: B1 VH with I51L, N61D, Q62E, N63D, F64Y, R65K
VL: B1 VL with A25V, N27Q, I29V, I33A, A34V
B20: FWB1923 (antibody, V domains shown)
VH: B1 VH with T58S, S59T, N61D, Q62E, N63D, R65K
VL: B1 VL with A25V, N27Q, I29V, I33A, A34V

The binders below were run against T1, Human FGFR2βIIIb (human, UniProt P21802-21 22-263, limits assumed) (assay: ELISA, coated antigen, anti-Fab HRP).
T1 construct: Construct used in the ELISA (tag, Fc, limits) is not described
T1 sequence (P21802 other isoform, or with tags, fused parts or gaps limits assumed): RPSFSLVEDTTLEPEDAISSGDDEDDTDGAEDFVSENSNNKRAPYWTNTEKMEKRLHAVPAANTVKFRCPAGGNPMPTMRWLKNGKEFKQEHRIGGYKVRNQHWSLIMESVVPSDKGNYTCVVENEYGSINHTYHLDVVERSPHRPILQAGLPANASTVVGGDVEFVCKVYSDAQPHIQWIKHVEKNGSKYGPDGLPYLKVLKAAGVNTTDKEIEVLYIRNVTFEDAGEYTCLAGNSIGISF

For B1, which EC50 is on record?
The EC50 was 0.163 nM.

For B2, which EC50 is on record?
The EC50 was 0.153 nM.

B3 was tested. Which EC50 did it give?
Its EC50 is 0.149 nM.

For B4, which EC50 is on record?
The EC50 was 0.135 nM.

B5 was tested. Which EC50 did it give?
Its EC50 is 0.126 nM.

With B6 as the binder, how does the EC50 read?
Its EC50 is 0.246 nM.

How did the EC50 turn out when B7 was run?
The EC50 was 0.173 nM.

Which EC50 does the source give for B8 here?
Its EC50 is 0.185 nM.

B9 was tested. Which EC50 did it give?
The EC50 was 0.173 nM.

Which EC50 does the source give for B10 here?
Its EC50 is 0.176 nM.

How did the EC50 turn out when B11 was run?
The EC50 was 0.167 nM.

Which EC50 does the source give for B12 here?
Its EC50 is 0.21 nM.

For B13, which EC50 is on record?
Its EC50 is 0.262 nM.

B14 was tested. Which EC50 did it give?
The EC50 was 0.143 nM.

How did the EC50 turn out when B15 was run?
Its EC50 is 0.203 nM.

B16 was tested. Which EC50 did it give?
The EC50 was 0.207 nM.

Which EC50 does the source give for B17 here?
Its EC50 is 0.196 nM.

Which EC50 does the source give for B18 here?
The EC50 was 0.215 nM.

Each binder was assayed against T2, Murine FGFR2IIIb (murine, UniProt P21803-2 22-263, limits assumed) (assay: ELISA, coated antigen, anti-Fab HRP).
T2 construct: Construct used in the ELISA is not described
T2 sequence (P21803 other isoform, or with tags, fused parts or gaps limits assumed): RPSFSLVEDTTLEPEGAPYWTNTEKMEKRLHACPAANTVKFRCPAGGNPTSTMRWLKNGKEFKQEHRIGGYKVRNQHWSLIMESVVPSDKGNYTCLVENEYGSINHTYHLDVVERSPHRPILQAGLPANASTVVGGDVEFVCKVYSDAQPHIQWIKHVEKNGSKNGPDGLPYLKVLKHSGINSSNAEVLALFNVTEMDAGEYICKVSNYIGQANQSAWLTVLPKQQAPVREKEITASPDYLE

Which EC50 does the source give for B1 here?
Its EC50 is 0.308 nM.

For B2, which EC50 is on record?
Its EC50 is 0.274 nM.

For B3, which EC50 is on record?
The EC50 was 0.314 nM.

For B4, which EC50 is on record?
The EC50 was 0.27 nM.

Which EC50 does the source give for B5 here?
Its EC50 is 0.225 nM.

For B6, which EC50 is on record?
The EC50 was 0.338 nM.

How did the EC50 turn out when B7 was run?
Its EC50 is 0.262 nM.

For B8, which EC50 is on record?
The EC50 was 0.273 nM.

B9 was tested. Which EC50 did it give?
The EC50 was 0.0908 nM.

With B10 as the binder, how does the EC50 read?
Its EC50 is 0.261 nM.

How did the EC50 turn out when B11 was run?
The EC50 was 0.289 nM.

Which EC50 does the source give for B12 here?
Its EC50 is 0.295 nM.

B13 was tested. Which EC50 did it give?
Its EC50 is 5.9 nM.

How did the EC50 turn out when B14 was run?
The EC50 was 0.29 nM.

How did the EC50 turn out when B15 was run?
The EC50 was 0.25 nM.

For B16, which EC50 is on record?
Its EC50 is 0.293 nM.

With B17 as the binder, how does the EC50 read?
Its EC50 is 0.296 nM.

With B18 as the binder, how does the EC50 read?
Its EC50 is 0.139 nM.

Each binder was assayed against T3, rhFGFR2IIIb-Fc (recombinant human FGFR2IIIb-Fc) (human, UniProt P21802-3 22-378, limits assumed) (assay: ELISA, coated rhFGFR2IIIb-Fc, anti-Fab HRP).
T3 construct: Coated on the ELISA plate at 2 ug/mL; not shown: Fc part
T3 sequence (P21802 other isoform, or with tags, fused parts or gaps limits assumed): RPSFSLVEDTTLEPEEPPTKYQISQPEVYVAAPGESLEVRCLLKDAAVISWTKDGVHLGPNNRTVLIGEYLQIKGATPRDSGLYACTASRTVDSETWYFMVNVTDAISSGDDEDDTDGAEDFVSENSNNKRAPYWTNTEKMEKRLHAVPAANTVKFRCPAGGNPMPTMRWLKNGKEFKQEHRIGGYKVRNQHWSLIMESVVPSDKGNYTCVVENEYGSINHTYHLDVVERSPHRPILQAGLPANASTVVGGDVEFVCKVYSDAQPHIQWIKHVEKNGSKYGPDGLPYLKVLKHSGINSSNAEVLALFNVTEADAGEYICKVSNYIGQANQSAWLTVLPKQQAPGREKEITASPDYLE

B1 was tested. Which EC50 did it give?
Its EC50 is 0.351 nM.

Which EC50 does the source give for B2 here?
Its EC50 is 1.21 nM.

For B3, which EC50 is on record?
Its EC50 is 0.879 nM.

How did the EC50 turn out when B19 was run?
The EC50 was 1.89 nM.

B4 was tested. Which EC50 did it give?
The EC50 was 0.626 nM.

For B5, which EC50 is on record?
The EC50 was 0.281 nM.

Which EC50 does the source give for B6 here?
The EC50 was 0.697 nM.

Which EC50 does the source give for B7 here?
Its EC50 is 0.298 nM.

How did the EC50 turn out when B8 was run?
Its EC50 is 0.877 nM.

Which EC50 does the source give for B9 here?
The EC50 was 0.643 nM.

How did the EC50 turn out when B10 was run?
The EC50 was 0.621 nM.

Which EC50 does the source give for B20 here?
The EC50 was 1.68 nM.

Which EC50 does the source give for B11 here?
The EC50 was 0.324 nM.

Which EC50 does the source give for B12 here?
The EC50 was 0.279 nM.

How did the EC50 turn out when B13 was run?
The EC50 was 1.06 nM.

B14 was tested. Which EC50 did it give?
The EC50 was 0.582 nM.

For B15, which EC50 is on record?
Its EC50 is 1.01 nM.

B16 was tested. Which EC50 did it give?
The EC50 was 0.724 nM.

How did the EC50 turn out when B17 was run?
The EC50 was 0.903 nM.

Which EC50 does the source give for B18 here?
Its EC50 is 0.656 nM.
